From US20150191546A1

Biological target: recombinant PR1/HLA-A*0201 monomer (human)
Assay: SPR (Biacore), antibody captured, peptide/HLA-A2 as analyte

With “BB7.2 murine monoclonal antibody (HLA-A*0201 allele-specific mouse IgG2a)” the Kd was 0.162 µM.
